This assay addresses T1, radiolabeled agitoxin2 (D20C conjugated with tritiated N-ethylmaleimide) (Leiurus quinquestriatus hebraeus, UniProt P46111 1-38).
T1 construct: mature
Description: filter binding assay with tritiated agitoxin2.

B1: wild type kcsa K+ channel from Streptomyces lividans (other)
chain: MPPMLSGLLARLVKLLLGRHGSALHWRAAGAATVLLVIVLLAGSYLAVLAERGAPGAQLITYPRALWWSVETATTVGYGDLYPVTLWGRLVAVVVMVAGITSFGLVTAALATWFVGREQERRGHFVRHSEKAAEEAYTRTTRALHERFDRLERMLDDN
B1: the binding result is reported as “no binding”.

The values above are taken from patent US20050272093A1 (ROCKEFELLER UNIVERSITY, published 2005).
